B1: ESRRA (parent)
chain: SLPLQDELAFAEDLVLDEEGARAA
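Note: lentivirally expressed fusions sorted by FACS into six bins by GFP to DsRed ratio, PSI derived from sequencing read proportions per bin multiplied by bin number.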

Variants of: B1
Assay: protein stability index of a GFP-peptide fusion (GPS, HEK-293T) (PSI 1-6); higher = more stable
Conditions: c terminus: a fixed tail appended
Variant SLPLQDELAKAEDLVLDEEGARAA [F10K] has a protein stability index of 2.83. Work on SLPLQDELADAEDLVLDEEGARAA [F10D] yielded a protein stability index of 4.18. Variant SLPLQDELAAAEDLVLDEEGARAA [F10A] has a protein stability index of 4.18. In the case of SLPLQDELACAEDLVLDEEGARAA [F10C], the protein stability index is reported as 3.36. SLPLQDELAHAEDLVLDEEGARAA [F10H] gave a protein stability index of 3.44. Variant SLPLQDELANAEDLVLDEEGARAA [F10N] has a protein stability index of 4.03. SLPLQDELATAEDLVLDEEGARAA [F10T] gave a protein stability index of 3.77. SLPLQDELAIAEDLVLDEEGARAA [F10I] showed a protein stability index of 3.63. With SLPLQDELALAEDLVLDEEGARAA [F10L] the protein stability index was 2.5. Variant SLPLQDELAPAEDLVLDEEGARAA [F10P] has a protein stability index of 5.69. SLPLQDELAGAEDLVLDEEGARAA [F10G] showed a protein stability index of 4.26. SLPLQDELAVAEDLVLDEEGARAA [F10V] showed a protein stability index of 3.69. For SLPLQDELAQAEDLVLDEEGARAA [F10Q], the protein stability index was 3.98. With SLPLQDELAWAEDLVLDEEGARAA [F10W] the protein stability index was 2.96. SLPLQDELARAEDLVLDEEGARAA [F10R] gave a protein stability index of 3.57. With SLPLQDELAEAEDLVLDEEGARAA [F10E] the protein stability index was 4.35. In the case of SLPLQDELASAEDLVLDEEGARAA [F10S], the protein stability index is reported as 3.04. For SLPLQDELAYAEDLVLDEEGARAA [F10Y], the protein stability index was 3.54. SLPLQDELAMAEDLVLDEEGARAA [F10M] showed a protein stability index of 2.52. For SLPLWDELAFAEDLVLDEEGARAA [Q5W], the protein stability index was 2.29. In the case of SLPLVDELAFAEDLVLDEEGARAA [Q5V], the protein stability index is reported as 3.64. Variant SLPLYDELAFAEDLVLDEEGARAA [Q5Y] has a protein stability index of 2.96. SLPLTDELAFAEDLVLDEEGARAA [Q5T] showed a protein stability index of 5.34. Work on SLPLQDELAFGEDLVLDEEGARAA [A11G] yielded a protein stability index of 5.17. Variant SLPLQDELAFCEDLVLDEEGARAA [A11C] has a protein stability index of 5.35. For SLPLQDELAFNEDLVLDEEGARAA [A11N], the protein stability index was 5.7. Work on SLPLQDELAFMEDLVLDEEGARAA [A11M] yielded a protein stability index of 5.4. SLPLQDELAFHEDLVLDEEGARAA [A11H] showed a protein stability index of 5.54. In the case of SLPLQDELAFPEDLVLDEEGARAA [A11P], the protein stability index is reported as 5.53. With SLPLQDELAFFEDLVLDEEGARAA [A11F] the protein stability index was 4.89. With SLPLQDELAFWEDLVLDEEGARAA [A11W] the protein stability index was 3.02. Variant SLPLQDELAFREDLVLDEEGARAA [A11R] has a protein stability index of 5.65. For SLPLQDELAFTEDLVLDEEGARAA [A11T], the protein stability index was 4.23. SLPLQDELAFSEDLVLDEEGARAA [A11S] gave a protein stability index of 4.13. Work on SLPLQDELAFEEDLVLDEEGARAA [A11E] yielded a protein stability index of 5.54. In the case of SLPLQDELAFKEDLVLDEEGARAA [A11K], the protein stability index is reported as 4.98. Work on SLPLQDELAFYEDLVLDEEGARAA [A11Y] yielded a protein stability index of 4.66. Work on SLPLQDELAFLEDLVLDEEGARAA [A11L] yielded a protein stability index of 4.97. SLPLQDELAFVEDLVLDEEGARAA [A11V] showed a protein stability index of 5.07. SLPLQDELAFQEDLVLDEEGARAA [A11Q] gave a protein stability index of 5.56. For SLPLQDELAFDEDLVLDEEGARAA [A11D], the protein stability index was 5.57. Variant SLPLQDELAFIEDLVLDEEGARAA [A11I] has a protein stability index of 4.73. SLPLQDDLAFAEDLVLDEEGARAA [E7D] showed a protein stability index of 3.63. With SLPLQDWLAFAEDLVLDEEGARAA [E7W] the protein stability index was 4.16. With SLPLQDSLAFAEDLVLDEEGARAA [E7S] the protein stability index was 3.29. SLPLQDFLAFAEDLVLDEEGARAA [E7F] gave a protein stability index of 3.92. SLPLQDYLAFAEDLVLDEEGARAA [E7Y] showed a protein stability index of 3.88. SLPLQDNLAFAEDLVLDEEGARAA [E7N] showed a protein stability index of 4.51. SLPLQDTLAFAEDLVLDEEGARAA [E7T] gave a protein stability index of 4.4. With SLPLQDALAFAEDLVLDEEGARAA [E7A] the protein stability index was 2.41. SLPLQDPLAFAEDLVLDEEGARAA [E7P] gave a protein stability index of 5.58. With SLPLQDGLAFAEDLVLDEEGARAA [E7G] the protein stability index was 5.2. For SLPLQDLLAFAEDLVLDEEGARAA [E7L], the protein stability index was 3.66. With SLPLQDQLAFAEDLVLDEEGARAA [E7Q] the protein stability index was 3.56. For SLPLQDMLAFAEDLVLDEEGARAA [E7M], the protein stability index was 3.26. SLPLQDCLAFAEDLVLDEEGARAA [E7C] showed a protein stability index of 3.5. For SLPLQDHLAFAEDLVLDEEGARAA [E7H], the protein stability index was 3.94. SLPLQDRLAFAEDLVLDEEGARAA [E7R] showed a protein stability index of 4.96. In the case of SLPLQDKLAFAEDLVLDEEGARAA [E7K], the protein stability index is reported as 4.84. Work on SLPLQDILAFAEDLVLDEEGARAA [E7I] yielded a protein stability index of 2.46. In the case of SLPLQDVLAFAEDLVLDEEGARAA [E7V], the protein stability index is reported as 2.03. SLPLQDEQAFAEDLVLDEEGARAA [L8Q] showed a protein stability index of 5.29. For SLPLQDENAFAEDLVLDEEGARAA [L8N], the protein stability index was 5.54. For SLPLQDERAFAEDLVLDEEGARAA [L8R], the protein stability index was 5.66. SLPLQDEMAFAEDLVLDEEGARAA [L8M] gave a protein stability index of 2.99. For SLPLQDEAAFAEDLVLDEEGARAA [L8A], the protein stability index was 5.07. Variant SLPLQDETAFAEDLVLDEEGARAA [L8T] has a protein stability index of 4.84. With SLPLQDEHAFAEDLVLDEEGARAA [L8H] the protein stability index was 5.5. In the case of SLPLQDEYAFAEDLVLDEEGARAA [L8Y], the protein stability index is reported as 4.77. SLPLQDESAFAEDLVLDEEGARAA [L8S] gave a protein stability index of 5.63. SLPLQDEFAFAEDLVLDEEGARAA [L8F] showed a protein stability index of 5.13. For SLPLQDEPAFAEDLVLDEEGARAA [L8P], the protein stability index was 5.3. Work on SLPLQDEWAFAEDLVLDEEGARAA [L8W] yielded a protein stability index of 5.29. Work on SLPLQDECAFAEDLVLDEEGARAA [L8C] yielded a protein stability index of 5.51. Work on SLPLQDEKAFAEDLVLDEEGARAA [L8K] yielded a protein stability index of 5.45. SLPLQDEVAFAEDLVLDEEGARAA [L8V] gave a protein stability index of 5.84. Variant SLPLQDEDAFAEDLVLDEEGARAA [L8D] has a protein stability index of 5.43. Variant SLPLQDEIAFAEDLVLDEEGARAA [L8I] has a protein stability index of 5.34. For SLPLQDEGAFAEDLVLDEEGARAA [L8G], the protein stability index was 5.2. SLPLQDEEAFAEDLVLDEEGARAA [L8E] showed a protein stability index of 5.55. With SLPLQDELDFAEDLVLDEEGARAA [A9D] the protein stability index was 5.39. In the case of SLPLQDELIFAEDLVLDEEGARAA [A9I], the protein stability index is reported as 4.8. For SLPLQDELEFAEDLVLDEEGARAA [A9E], the protein stability index was 4.7. SLPLQDELRFAEDLVLDEEGARAA [A9R] showed a protein stability index of 3.38. For SLPLQDELVFAEDLVLDEEGARAA [A9V], the protein stability index was 4.88. For SLPLQDELCFAEDLVLDEEGARAA [A9C], the protein stability index was 4.11. Variant SLPLQDELLFAEDLVLDEEGARAA [A9L] has a protein stability index of 3.45. In the case of SLPLQDELTFAEDLVLDEEGARAA [A9T], the protein stability index is reported as 2.63. With SLPLQDELHFAEDLVLDEEGARAA [A9H] the protein stability index was 3.67. SLPLQDELKFAEDLVLDEEGARAA [A9K] gave a protein stability index of 2.63. In the case of SLPLQDELGFAEDLVLDEEGARAA [A9G], the protein stability index is reported as 4.01. Variant SLPLQDELWFAEDLVLDEEGARAA [A9W] has a protein stability index of 3.68. SLPLQDELNFAEDLVLDEEGARAA [A9N] gave a protein stability index of 3.88. With SLPLQDELFFAEDLVLDEEGARAA [A9F] the protein stability index was 4.56.

— the supplement of paper PMC10567573
